From patent US20210130452A1 (Merck KGaA, published 2021)

Assays:
[1] = biological target: T1, human IL-17F (human, UniProt Q96PD4 31-163); assay: SPR (Biacore) off-rate
T1 construct: made in Hek293 cells (GenBank AF384857); also called hIL-17F; hIL17F
T1 sequence: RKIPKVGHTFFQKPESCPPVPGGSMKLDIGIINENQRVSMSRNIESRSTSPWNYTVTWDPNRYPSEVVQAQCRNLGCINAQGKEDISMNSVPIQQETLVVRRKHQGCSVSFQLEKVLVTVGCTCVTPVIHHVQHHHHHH

[2] = biological target: T2, human IL-17A/F heterodimer (human, UniProt Q16552 24-155; Q96PD4 31-163, limits assumed); assay: SPR (Biacore) off-rate
T2 construct: bought, made in E. coli (R&D Systems 5194-IL/CF); also called hIL-17A/F; hIL17A/F

[3] = biological target: T3, mouse IL-17A (mouse, UniProt Q62386 26-158); assay: ELISA, coated IL-17A
T3 sequence (looked up): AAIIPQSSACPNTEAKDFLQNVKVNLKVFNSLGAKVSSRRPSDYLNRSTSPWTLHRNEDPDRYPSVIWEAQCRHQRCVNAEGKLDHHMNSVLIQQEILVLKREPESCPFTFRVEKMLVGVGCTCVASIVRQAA
Description: (§1) Binding of a selected panel of anti-IL-17 Nanobodies to IL-17 of other species was assessed using a binding ELISA. […] HRP (horseradish peroxidase) conjugated anti-myc (Serotec, MCA 2200P) was used for detection using esTMB as substrate.

[4] = biological target: T4, rat IL-17A (rat, UniProt Q61453 18-150, limits assumed); assay: ELISA, coated IL-17A
T4 sequence (looked up): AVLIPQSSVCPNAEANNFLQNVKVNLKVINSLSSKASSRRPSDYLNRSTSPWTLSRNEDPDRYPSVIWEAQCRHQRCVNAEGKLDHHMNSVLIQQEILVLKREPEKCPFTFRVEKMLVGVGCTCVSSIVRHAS
Description: as §1

[5] = biological target: guinea pig IL-17A (guinea pig); assay: ELISA, coated IL-17A
Description: as §1

[6] = biological target: T5, human IL-17F (human, UniProt Q96PD4 31-163); assay: ELISA, coated IL-17F;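 also: binding ELISA on coated antigen from various species, with bound Nanobodies revealed by an HRP-linked anti-myc antibody and esTMB substrate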
T5 construct: GenBank AF384857, expressed in Hek293 as 6-His C-terminal tagged protein; also called hIL-17F; IL-17F-6HIS
T5 sequence: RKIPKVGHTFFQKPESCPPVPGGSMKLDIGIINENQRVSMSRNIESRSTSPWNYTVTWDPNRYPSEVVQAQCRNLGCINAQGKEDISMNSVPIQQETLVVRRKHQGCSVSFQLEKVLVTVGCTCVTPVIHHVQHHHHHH
Description: as §1

[7] = biological target: T6, marmoset IL-17F (marmoset, UniProt A6N6I9 31-163); assay: ELISA, coated IL-17F;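 also: binding ELISA on coated antigen from various species, with bound Nanobodies revealed by an HRP-linked anti-myc antibody and esTMB substrate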
T6 sequence (looked up): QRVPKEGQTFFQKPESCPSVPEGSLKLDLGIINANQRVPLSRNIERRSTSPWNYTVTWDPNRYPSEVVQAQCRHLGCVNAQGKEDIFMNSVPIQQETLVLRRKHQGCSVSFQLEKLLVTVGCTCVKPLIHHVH
Description: as §1

[8] = biological target: T7, rat IL-17F (rat, UniProt Q5BJ95 29-161); assay: ELISA, coated IL-17F;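 also: binding ELISA on coated antigen from various species, with bound Nanobodies revealed by an HRP-linked anti-myc antibody and esTMB substrate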
T7 sequence (looked up): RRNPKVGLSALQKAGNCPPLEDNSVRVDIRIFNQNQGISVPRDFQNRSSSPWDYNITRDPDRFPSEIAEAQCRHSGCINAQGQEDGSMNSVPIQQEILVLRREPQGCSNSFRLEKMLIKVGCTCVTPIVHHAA
Description: as §1

[9] = biological target: T8, human IL-17A (human, UniProt Q16552 24-155); assay: ELISA, coated IL-17A
T8 construct: secreted form (GenBank U32659) expressed in Hek293 with C-terminal 6-His; also called hIL-17A; IL-17A-6HIS
Description: as §1

[10] = biological target: T9, marmoset IL-17A (marmoset, IL-17A is a disulfide-linked homodimer. One chain is given.); assay: ELISA, coated IL-17A
T9 chain: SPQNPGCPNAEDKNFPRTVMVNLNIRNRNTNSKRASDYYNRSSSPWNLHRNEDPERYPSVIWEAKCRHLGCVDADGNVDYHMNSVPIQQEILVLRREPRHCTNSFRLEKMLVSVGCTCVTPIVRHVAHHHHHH
Description: as §1

[11] = biological target: T8, human IL-17A; assay: SPR, IL-17A-Nanobody complex over captured IL-17RA
Excerpt: The receptor (IL-17RA or IL-17RC) was captured via its human Fc-tail by an anti-human IgG-Fc antibody coated on the chip.

T2 sequence (Q16552 24-155 limits assumed, chain 1 of 2, one chain of several): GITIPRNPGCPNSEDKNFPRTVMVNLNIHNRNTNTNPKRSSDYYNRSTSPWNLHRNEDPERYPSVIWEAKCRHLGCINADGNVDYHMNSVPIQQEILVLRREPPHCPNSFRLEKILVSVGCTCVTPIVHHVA
T8 sequence (Q16552 other isoform, or with tags, fused parts or gaps): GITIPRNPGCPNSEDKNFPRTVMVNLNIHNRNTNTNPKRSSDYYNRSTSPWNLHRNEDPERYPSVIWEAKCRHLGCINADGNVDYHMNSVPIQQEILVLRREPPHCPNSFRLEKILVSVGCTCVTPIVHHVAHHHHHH

| Binder | koff [1] [s⁻¹] | koff [2] [s⁻¹] | OD [3] [OD] | OD [4] [OD] | OD [5] [OD] | OD [6] [OD] | OD [7] [OD] | OD [8] [OD] | OD [9] [OD] | OD [10] [OD] | % Biacore binding (IL-17A-NB)-IL-17RA [11] [%] |
| --- | --- | --- | --- | --- | --- | --- | --- | --- | --- | --- | --- |
| IL17MS3056 (VHH, variant of IL17MS16A04; Kabat numbering) VHH: EVQLVESGGGLVQPGGSLRLSCAASGRTFSSYVVGWFRQAPGKEREFVGAISGSGDSIYYAVSEKDRFTISRDNSKNTLYLQMSSLRAEDTAVYYCTADQEFGYLRFGRSEYWGQGTLVTVSS | 0.000514 | 0.00288 | – | – | – | – | – | – | – | – | – |
| IL17MS3054 (VHH, variant of IL17MS16A04; Kabat numbering) VHH: EVQLVESGGGLVQPGGSLRLSCAASGRTFSSYVVGWFRQAPGKEREFIGAISGSGDSIYYAVSEKDRFTISRDNSKNTLYLQMSSLRPEDTAVYYCTADQEFGYLRFGRSEYWGQGTLVTVSS | 0.000459 | 0.00308 | – | – | – | – | – | – | – | – | – |
| IL17MS3055 (VHH) VHH: EVQLVESGGGLVQPGGSLRLSCAASGRTFSSYVVGWFRQAPGKEREFIGAISGSGDSIYYAVSEKGRFTISRDNGKNTLYLQMNSLRAEDTAVYYCTADQEFGYLRFGRSEYWGQGTLVTVSS | 0.000493 | 0.00332 | – | – | – | – | – | – | – | – | – |
| 04B09 (VHH, Class 2) VHH: EVQLVESGGGLVQPGGSLRLSCAASGFTLGYYAIGWFRQAPGKEREGVSCDSSSDGDTYYANSVKGRFTISTDNGKNTVYLQMNSLKPEDTAVYYCATCTDWNYDYWGQGTQVTVSS | – | – | 0 | 0.001 | 0.006 | -0.015 | 0.0025 | 0.0015 | – | – | – |
| 09G10 (VHH, Class 2) VHH: EVQLVESGGGLVQAGGSLRLSCAASDSVFTAKAVGWYRQPPGLQREWVAIITSGGKTNYADSSVKGRFTVSVDKVKNTVTLQMNSLKPEDTAVYYCYAQWMGRDYWGQGTQVTVSS | – | – | -0.001 | 0.003 | 0.006 | -0.018 | 0.0045 | 0.0025 | 1.64 | 1.58 | 2.05 |
